# Ends that are not written are not given here. * marks the point of attachment. Biotin = O=C1N[C@H]2[C@H](CS[C@H]2CCCCC(=O)*)N1
# T1: human HER4 protein (human, UniProt Q15303 26-649, limits assumed)
# T1 construct: Bought
# T1 sequence (looked up): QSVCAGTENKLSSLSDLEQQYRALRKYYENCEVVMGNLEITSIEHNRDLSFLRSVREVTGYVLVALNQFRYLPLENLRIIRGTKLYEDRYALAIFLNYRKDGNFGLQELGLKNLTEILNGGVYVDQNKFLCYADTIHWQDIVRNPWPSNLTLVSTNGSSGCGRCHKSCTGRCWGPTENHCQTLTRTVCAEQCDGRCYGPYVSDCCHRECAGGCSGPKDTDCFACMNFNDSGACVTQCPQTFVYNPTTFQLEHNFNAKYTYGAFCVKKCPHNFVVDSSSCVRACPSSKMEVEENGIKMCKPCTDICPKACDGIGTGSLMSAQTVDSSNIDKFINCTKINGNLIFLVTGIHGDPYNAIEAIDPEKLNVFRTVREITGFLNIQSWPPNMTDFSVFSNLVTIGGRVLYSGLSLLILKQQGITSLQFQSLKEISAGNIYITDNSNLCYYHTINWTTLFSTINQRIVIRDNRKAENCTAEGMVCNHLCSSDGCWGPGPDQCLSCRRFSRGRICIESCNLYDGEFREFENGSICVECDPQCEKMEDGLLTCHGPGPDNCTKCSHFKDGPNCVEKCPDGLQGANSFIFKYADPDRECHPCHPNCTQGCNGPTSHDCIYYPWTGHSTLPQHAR
# T2: 495-510
# T2 peptide: HTANRPEDECVGEGLA
# T3: peptide 3-4, bio-RPEDECVGEGLA (499-510)
# T3 peptide: Biotin-RPEDECVGEGLA
# T4: peptide 4-7 (D502A), bio-HTANRPEAECVGEGLA
# T4 peptide: Biotin-HTANRPEAECVGEGLA
# T5: peptide 4-10 (V505A), bio-HTANRPEDECAGEGLA
# T5 peptide: Biotin-HTANRPEDECAGEGLA
# T6: peptide 4-11 (E507A), bio-HTANRPEDECVGAGLA
# T6 peptide: Biotin-HTANRPEDECVGAGLA
# T7: peptide 4-12 (L509A), bio-HTANRPEDECVGEGAA
# T7 peptide: Biotin-HTANRPEDECVGEGAA
# T8: peptide 4-1, bio-ATANRPEDECVGEGLA
# T8 peptide: Biotin-ATANRPEDECVGEGLA
# T9: peptide 4-2, bio-HAANRPEDECVGEGLA
# T9 peptide: Biotin-HAANRPEDECVGEGLA
# T10: peptide 4-3, bio-HTAARPEDECVGEGLA
# T10 peptide: Biotin-HTAARPEDECVGEGLA
# T11: peptide 4-4, bio-HTANAPEDECVGEGLA
# T11 peptide: Biotin-HTANAPEDECVGEGLA
# T12: peptide 4-5, bio-HTANRAEDECVGEGLA
# T12 peptide: Biotin-HTANRAEDECVGEGLA
# T13: peptide 4-6, bio-HTANRPADECVGEGLA
# T13 peptide: Biotin-HTANRPADECVGEGLA
# T14: peptide 4-8, bio-HTANRPEDACVGEGLA
# T14 peptide: Biotin-HTANRPEDACVGEGLA
# T15: peptide 4-9, bio-HTANRPEDEAVGEGLA
# T15 peptide: Biotin-HTANRPEDEAVGEGLA
# T16: peptide HA-21, bio-HQALLHTANRPEDECVGEGLA (490-510) (N-terminal biotin)
# T16 peptide: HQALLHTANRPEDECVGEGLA
# T17: HER2-ECD-DI-III
# T17 construct: Truncated human HER2-ECD construct; also called HER2-ECD-DI-DIII(1-510)
# T17 receptor fragment: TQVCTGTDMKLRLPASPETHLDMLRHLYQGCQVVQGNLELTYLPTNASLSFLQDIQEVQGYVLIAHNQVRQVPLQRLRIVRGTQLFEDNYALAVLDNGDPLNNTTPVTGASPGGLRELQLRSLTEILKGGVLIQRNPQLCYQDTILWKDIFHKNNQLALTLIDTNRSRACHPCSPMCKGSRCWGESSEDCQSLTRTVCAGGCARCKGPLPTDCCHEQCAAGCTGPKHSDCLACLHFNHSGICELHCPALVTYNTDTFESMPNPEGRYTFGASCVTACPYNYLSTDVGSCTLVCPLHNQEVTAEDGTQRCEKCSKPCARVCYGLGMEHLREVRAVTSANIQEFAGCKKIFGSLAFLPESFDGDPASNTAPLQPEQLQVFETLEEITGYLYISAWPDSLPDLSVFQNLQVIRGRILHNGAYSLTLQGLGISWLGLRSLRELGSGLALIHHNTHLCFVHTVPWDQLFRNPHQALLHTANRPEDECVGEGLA
# What was measured:
# [1] = target: T18, HER2 on tumor cells with high HER2 expression (breast cancer cells BT474; SKBR3) (human, UniProt P04626 23-1255); experiment: FACS on BT474 cells
# T18 construct: whole, on cells; Endogenous full-length receptor on human tumor cell lines; also called breast cancer cells BT474 (with high HER2 expression on the cell surface); HER2 in BT474 and SKBR3 cells
# HER2-ECD protein of rat = target: T19, HER2-ECD protein of rat (rat, UniProt P06494 23-654); experiment: ELISA, antigen coated at 0.2 µg/well
# T19 construct: extracellular domain; Bought; also called Rat-HER2-ECD
# human HER1 protein = target: T20, human HER1 protein (human, UniProt P00533 25-645); experiment: ELISA, antigen coated at 0.2 µg/well
# T20 construct: Bought
# human HER3 protein = target: T21, human HER3 protein (human, UniProt P21860 20-643); experiment: ELISA, antigen coated at 0.2 µg/well
# T21 construct: Bought
# human HER4 protein = target: T1, human HER4 protein; experiment: ELISA, antigen coated at 0.2 µg/well
# [2] = target: T22, HER2-ECD protein of cynomolgus monkey (cynomolgus monkey, UniProt A0A2K5WUT7 1-622); experiment: ELISA, Cyno-HER2-ECD coated at 0.2 µg/well
# T22 construct: extracellular domain; Bought; also called Cyno-HER2-ECD
# [3] = target: T23, human HER2-ECD protein (1 to 652 amino acids of NP_004439.2, 6xHis tag at the C-terminus) (human, UniProt P04626 23-652); experiment: ELISA on coated human HER2-ECD; humanized 19H6-Hu
# T23 construct: Homemade, expressed in CHO cells from HER2-ECD-His-pTT5; also called HER2-ECD-His; HER2-ECD-fl(1-652)
# [4] = target: T23, human HER2-ECD protein (1 to 652 amino …); experiment: Biacore, antibody captured on Protein A chip, HER2-ECD as analyte
# [5] = target: T23, human HER2-ECD protein (1 to 652 amino …); experiment: ELISA on coated protein labelled HER2 on the sheet (taken as the human HER2-ECD of paragraph 112), positive control of the selectivity assay of Example 7
# [6] = target: T23, human HER2-ECD protein (1 to 652 amino …); experiment: ELISA on coated human HER2-ECD; humanized 19H6-graft
# 495-510 = target: T2, 495-510; experiment: peptide ELISA
# [7] = target: T3, peptide 3-4, bio-RPEDECVGEGLA (499-510); experiment: peptide ELISA
# [8] = target: T23, human HER2-ECD protein (1 to 652 amino …); experiment: ELISA on coated human HER2-ECD
# [9] = target: T4, peptide 4-7 (D502A), …; experiment: ELISA on alanine scan biotin peptides
# [10] = target: T5, peptide 4-10 (V505A), …; experiment: ELISA on alanine scan biotin peptides
# [11] = target: T6, peptide 4-11 (E507A), …; experiment: ELISA on alanine scan biotin peptides
# [12] = target: T7, peptide 4-12 (L509A), …; experiment: ELISA on alanine scan biotin peptides
# [13] = target: T8, peptide 4-1, bio-ATANRPEDECVGEGLA; experiment: peptide ELISA, alanine scan
# [14] = target: T9, peptide 4-2, bio-HAANRPEDECVGEGLA; experiment: peptide ELISA, alanine scan
# [15] = target: T10, peptide 4-3, bio-HTAARPEDECVGEGLA; experiment: peptide ELISA, alanine scan
# [16] = target: T11, peptide 4-4, bio-HTANAPEDECVGEGLA; experiment: peptide ELISA, alanine scan
# [17] = target: T12, peptide 4-5, bio-HTANRAEDECVGEGLA; experiment: peptide ELISA, alanine scan
# [18] = target: T13, peptide 4-6, bio-HTANRPADECVGEGLA; experiment: peptide ELISA, alanine scan
# [19] = target: T14, peptide 4-8, bio-HTANRPEDACVGEGLA; experiment: peptide ELISA, alanine scan
# [20] = target: T15, peptide 4-9, bio-HTANRPEDEAVGEGLA; experiment: peptide ELISA, alanine scan
# [21] = target: T16, peptide HA-21, …; experiment: ELISA on biotin peptides of HER2-ECD DIII
# HER2-ECD-D502A = target: T24, HER2-ECD-D502A (human, UniProt P04626 23-652); experiment: ELISA on coated HER2-ECD-D502A; D502A mutant
# T24 construct: Site-directed mutant of HER2-ECD-His-pTT5, expressed in HEK293E
# HER2-ECD-E507A = target: T25, HER2-ECD-E507A (human, UniProt P04626 23-652); experiment: ELISA on coated HER2-ECD-E507A; E507A mutant
# T25 construct: Site-directed mutant of HER2-ECD-His-pTT5, expressed in HEK293E
# [22] = target: T23, human HER2-ECD protein (1 to 652 amino …); experiment: ELISA on coated HER2-ECD protein; wild-type HER2-ECD
# HER2-ECD-DI-III = target: T17, HER2-ECD-DI-III; experiment: Western blot by the method of Example 3.2 (reduced-denatured protein)
# HER2-ECD-V505A = target: T26, HER2-ECD-V505A (human, UniProt P04626 23-652); experiment: ELISA on coated HER2-ECD-V505A (printed HER2-ECD-E505A); V505A mutant (printed E505A)
# T26 construct: Site-directed mutant of HER2-ECD-His-pTT5, expressed in HEK293E
# [23] = target: T23, human HER2-ECD protein (1 to 652 amino …); experiment: competitive ELISA on coated human HER2-ECD; competitor: biotinylated 19H6 (10 ng/mL, mixed 1:1)
# [24] = target: T23, human HER2-ECD protein (1 to 652 amino …); experiment: ELISA on coated human HER2-ECD; chimeric 19H6-ch, FIG. 22 experiment
binder,measurement,setting,value
"humanized antibody 19H6-Hu (antibody, human IgG1, kappa, V domains shown) VH: QVQLVQSGAEVKKPGASVKVSCKGSGYTFTDYAIHWVRQAPGQSLEWIGVFSIYYENINYNQKFKGRATMTVDKSTSTAYMELRSLRSDDTAVYYCARRDGGTINYWGQGTLVTVSS VL: DVVMTQSPLSLPVTLGQPASISCRSSQSLVHSNGNTYLHWYQQRPGQSPRLLIYKVSNRFSGVPDRFSGSGSGTDFTLKISRVEAEDVGVYFCSQSTHIPWTFGQGTKVEIKR",EC50,[1],1.9 nM
same,binding result,HER2-ECD protein of rat,no binding
same,binding result,human HER1 protein,no binding
same,binding result,human HER3 protein,no binding
same,binding result,human HER4 protein,no binding
same,EC50,[2],0.1 nM
same,EC50,[3],0.06 nM
same,Kd,[4],0.713 nM
same,koff,[4],0.000111 s⁻¹
same,kon,[4],155000 M⁻¹ s⁻¹
same,EC50 (read off the curve),[5],~0.1 nM
"humanized antibody 19H6-graft (antibody, human IgG1, kappa, V domains shown, Constant regions tied by the words 'The same constant region as that of 19H6-ch') VH: QVQLVQSGAEVKKPGASVKVSCKASGYTFTDYAIHWVRQAPGQGLEWMGVFSIYYENINYNQKFKGRVTMTTDTSTSTAYMELRSLRSDDTAVYYCARRDGGTINYWGQGTLVTVSS VL: DVVMTQSPLSLPVTLGQPASISCRSSQSLVHSNGNTYLHWFQQRPGQSPRRLIYKVSNRFSGVPDRFSGSGSGTDFTLKISRVEAEDVGVYYCSQSTHIPWTFGQGTKVEIKR",EC50,[6],0.5 nM
"murine anti-human HER2 monoclonal antibody 19H6 (antibody, V domains shown, Hybridoma-derived mouse antibody purified on Protein G; also called murine antibody 19H6) VH: QVQLQQSGPELVRPGESVKISCKGSGYTFTDYAIHWVKQSHAKSLEWIGVFSIYYENINYNQKFKGKATMTVDKSSSTAYLDLARLTSEDSAIYYCARRDGGTINYWGQGTSVTVSS VL: DVVMTQTPLSLPVSLGDQASISCRSSQSLVHSNGNTYLHWYLQKPGQSPKLLIYKVSNRFSGVPDRFSGSGSGTDFTLKISRVEAEDLGVYFCSQSTHIPWTFGGGTKLEIK",EC50,[1],1.1 nM
same,binding result,495-510,binds
same,binding result,[7],binds
same,EC50,[8],0.28 nM
same,binding result,[9],no binding
same,binding result,[10],no binding
same,binding result,[11],no binding
same,binding result,[12],binds
same,binding result,[13],binds
same,binding result,[14],binds
same,binding result,[15],binds
same,binding result,[16],binds
same,binding result,[17],binds
same,binding result,[18],binds
same,binding result,[19],binds
same,binding result,[20],binds
same,binding result,[21],binds
same,EC50,HER2-ECD-D502A,0.05 nM
same,EC50,HER2-ECD-E507A,0.867 nM
same,EC50,[22],0.041 nM
same,binding result,HER2-ECD-DI-III,binds
same,EC50,HER2-ECD-V505A,0.038 nM
same,IC50 (read off the curve),[23],~1 nM
"chimeric antibody 19H6-ch (antibody, human IgG1, kappa, V domains shown, 19H6 variable regions spliced with human IgG1 and kappa constant regions; expressed in HEK-293E) VH: QVQLQQSGPELVRPGESVKISCKGSGYTFTDYAIHWVKQSHAKSLEWIGVFSIYYENINYNQKFKGKATMTVDKSSSTAYLDLARLTSEDSAIYYCARRDGGTINYWGQGTSVTVSS VL: DVVMTQTPLSLPVSLGDQASISCRSSQSLVHSNGNTYLHWYLQKPGQSPKLLIYKVSNRFSGVPDRFSGSGSGTDFTLKISRVEAEDLGVYFCSQSTHIPWTFGGGTKLEIKR",EC50,[1],1.5 nM
same,EC50,[8],0.1 nM
same,EC50,[24],0.05 nM
